Experimental data published in paper PMC10786891, “Massively parallel profiling of RNA-targeting CRISPR-Cas13d”.

T1: EsCas13d, nuclease-dead (Eubacterium siraeum, UniProt B0MS50, R295A;H300A;R849A;H854A)
T1 sequence: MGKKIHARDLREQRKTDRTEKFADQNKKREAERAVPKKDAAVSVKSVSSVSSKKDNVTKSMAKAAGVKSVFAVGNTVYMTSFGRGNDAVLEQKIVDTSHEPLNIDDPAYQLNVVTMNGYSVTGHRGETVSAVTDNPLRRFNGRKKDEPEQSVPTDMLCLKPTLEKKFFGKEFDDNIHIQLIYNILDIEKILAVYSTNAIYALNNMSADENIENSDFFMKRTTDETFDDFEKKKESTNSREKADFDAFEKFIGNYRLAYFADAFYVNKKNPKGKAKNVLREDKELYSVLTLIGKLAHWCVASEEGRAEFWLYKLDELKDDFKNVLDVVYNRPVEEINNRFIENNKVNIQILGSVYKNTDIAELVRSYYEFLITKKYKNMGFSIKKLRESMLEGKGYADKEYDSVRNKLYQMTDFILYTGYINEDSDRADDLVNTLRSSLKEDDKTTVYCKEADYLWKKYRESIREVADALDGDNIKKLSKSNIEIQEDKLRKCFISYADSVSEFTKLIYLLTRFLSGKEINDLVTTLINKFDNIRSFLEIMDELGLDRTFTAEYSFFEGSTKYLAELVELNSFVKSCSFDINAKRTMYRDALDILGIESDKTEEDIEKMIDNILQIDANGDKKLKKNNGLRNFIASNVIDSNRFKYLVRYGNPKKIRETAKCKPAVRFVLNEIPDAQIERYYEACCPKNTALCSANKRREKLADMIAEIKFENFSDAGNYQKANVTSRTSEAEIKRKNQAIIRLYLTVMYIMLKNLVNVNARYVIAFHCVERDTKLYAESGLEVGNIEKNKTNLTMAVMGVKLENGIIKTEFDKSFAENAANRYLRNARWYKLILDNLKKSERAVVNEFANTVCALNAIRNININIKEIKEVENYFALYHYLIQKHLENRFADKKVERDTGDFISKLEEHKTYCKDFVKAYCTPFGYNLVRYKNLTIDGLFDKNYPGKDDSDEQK


Biological target: T1, EsCas13d, nuclease-dead
Assay: crRNA (strand 1, pre-loaded); Mg2+; 40 mM Tris-HCl pH 7.5, 150 mM NaCl, 6 mM MgCl2, 1 mM DTT, 0.1% Tween-20, 0.2 mg/ml BSA; 25 C; 10 min per concentration, then washed
Conditions: tags: His6-TwinStrep-SUMO cleaved; N-terminal SNAP kept (SNAP-Surface 488); label: 3' end held by stalled T7 RNA polymerase

Binder	Kd
target 2 MT 5'PFS CGA 3'PFS CGC (mixed) RNA 1: CACCCGUGCAAAAUUGCAGGGGUCUAAAACCUUCUCCAAAUUGUUUCAUCCU RNA 2: GGGAAUGGAUCCACAUCUACGAAUUCCGAAGGAUGAAACAAUUUGGAGAAGCGCAGAUCGGAAGAGCACACGU	5.6 ± 1.5 nM
target 2 MT 5'PFS ACU 3'PFS CCA (mixed) RNA 1: CACCCGUGCAAAAUUGCAGGGGUCUAAAACCUUCUCCAAAUUGUUUCAUCCU RNA 2: GGGAAUGGAUCCACAUCUACGAAUUCACUAGGAUGAAACAAUUUGGAGAAGCCAAGAUCGGAAGAGCACACGU	7.3 ± 1.8 nM
target 2 MT 5'PFS UAA 3'PFS UUU (mixed) RNA 1: CACCCGUGCAAAAUUGCAGGGGUCUAAAACCUUCUCCAAAUUGUUUCAUCCU RNA 2: GGGAAUGGAUCCACAUCUACGAAUUCUAAAGGAUGAAACAAUUUGGAGAAGUUUAGAUCGGAAGAGCACACGU	13.4 ± 1.9 nM
target 2 MT 5'PFS CUG 3'PFS CAU (mixed) RNA 1: CACCCGUGCAAAAUUGCAGGGGUCUAAAACCUUCUCCAAAUUGUUUCAUCCU RNA 2: GGGAAUGGAUCCACAUCUACGAAUUCCUGAGGAUGAAACAAUUUGGAGAAGCAUAGAUCGGAAGAGCACACGU	2.29 ± 0.24 nM
target 2 MT 5'PFS CGA 3'PFS AGC (mixed) RNA 1: CACCCGUGCAAAAUUGCAGGGGUCUAAAACCUUCUCCAAAUUGUUUCAUCCU RNA 2: GGGAAUGGAUCCACAUCUACGAAUUCCGAAGGAUGAAACAAUUUGGAGAAGAGCAGAUCGGAAGAGCACACGU	7.8 ± 1.1 nM
target 2 MT 5'PFS CUG 3'PFS CAC (mixed) RNA 1: CACCCGUGCAAAAUUGCAGGGGUCUAAAACCUUCUCCAAAUUGUUUCAUCCU RNA 2: GGGAAUGGAUCCACAUCUACGAAUUCCUGAGGAUGAAACAAUUUGGAGAAGCACAGAUCGGAAGAGCACACGU	3.7 ± 0.4 nM
target 2 MT 5'PFS GCA 3'PFS AAU (mixed) RNA 1: CACCCGUGCAAAAUUGCAGGGGUCUAAAACCUUCUCCAAAUUGUUUCAUCCU RNA 2: GGGAAUGGAUCCACAUCUACGAAUUCGCAAGGAUGAAACAAUUUGGAGAAGAAUAGAUCGGAAGAGCACACGU	10 ± 1.9 nM
target 2 MT 5'PFS AAC 3'PFS AGA (mixed) RNA 1: CACCCGUGCAAAAUUGCAGGGGUCUAAAACCUUCUCCAAAUUGUUUCAUCCU RNA 2: GGGAAUGGAUCCACAUCUACGAAUUCAACAGGAUGAAACAAUUUGGAGAAGAGAAGAUCGGAAGAGCACACGU	3.3 ± 0.8 nM
target 2 MT 5'PFS CUG 3'PFS CAG (mixed) RNA 1: CACCCGUGCAAAAUUGCAGGGGUCUAAAACCUUCUCCAAAUUGUUUCAUCCU RNA 2: GGGAAUGGAUCCACAUCUACGAAUUCCUGAGGAUGAAACAAUUUGGAGAAGCAGAGAUCGGAAGAGCACACGU	2.33 ± 0.21 nM
target 2 MT 5'PFS UAA 3'PFS UUC (mixed) RNA 1: CACCCGUGCAAAAUUGCAGGGGUCUAAAACCUUCUCCAAAUUGUUUCAUCCU RNA 2: GGGAAUGGAUCCACAUCUACGAAUUCUAAAGGAUGAAACAAUUUGGAGAAGUUCAGAUCGGAAGAGCACACGU	14 ± 2.1 nM
target 2 MT 5'PFS ACC 3'PFS UUU (mixed) RNA 1: CACCCGUGCAAAAUUGCAGGGGUCUAAAACCUUCUCCAAAUUGUUUCAUCCU RNA 2: GGGAAUGGAUCCACAUCUACGAAUUCACCAGGAUGAAACAAUUUGGAGAAGUUUAGAUCGGAAGAGCACACGU	7.8 ± 0.9 nM
target 2 MT 5'PFS CAG 3'PFS AAC (mixed) RNA 1: CACCCGUGCAAAAUUGCAGGGGUCUAAAACCUUCUCCAAAUUGUUUCAUCCU RNA 2: GGGAAUGGAUCCACAUCUACGAAUUCCAGAGGAUGAAACAAUUUGGAGAAGAACAGAUCGGAAGAGCACACGU	6.1 ± 1.4 nM
target 2 MT 5'PFS ACU 3'PFS CCG (mixed) RNA 1: CACCCGUGCAAAAUUGCAGGGGUCUAAAACCUUCUCCAAAUUGUUUCAUCCU RNA 2: GGGAAUGGAUCCACAUCUACGAAUUCACUAGGAUGAAACAAUUUGGAGAAGCCGAGAUCGGAAGAGCACACGU	6.2 ± 0.6 nM
target 2 MT 5'PFS UCG 3'PFS ACU (mixed) RNA 1: CACCCGUGCAAAAUUGCAGGGGUCUAAAACCUUCUCCAAAUUGUUUCAUCCU RNA 2: GGGAAUGGAUCCACAUCUACGAAUUCUCGAGGAUGAAACAAUUUGGAGAAGACUAGAUCGGAAGAGCACACGU	20 ± 4 nM
target 2 MT 5'PFS GCC 3'PFS CCA (mixed) RNA 1: CACCCGUGCAAAAUUGCAGGGGUCUAAAACCUUCUCCAAAUUGUUUCAUCCU RNA 2: GGGAAUGGAUCCACAUCUACGAAUUCGCCAGGAUGAAACAAUUUGGAGAAGCCAAGAUCGGAAGAGCACACGU	20 ± 4 nM
target 2 MT 5'PFS CGA 3'PFS AGA (mixed) RNA 1: CACCCGUGCAAAAUUGCAGGGGUCUAAAACCUUCUCCAAAUUGUUUCAUCCU RNA 2: GGGAAUGGAUCCACAUCUACGAAUUCCGAAGGAUGAAACAAUUUGGAGAAGAGAAGAUCGGAAGAGCACACGU	4.6 ± 0.9 nM
target 2 MT 5'PFS CGA 3'PFS CGA (mixed) RNA 1: CACCCGUGCAAAAUUGCAGGGGUCUAAAACCUUCUCCAAAUUGUUUCAUCCU RNA 2: GGGAAUGGAUCCACAUCUACGAAUUCCGAAGGAUGAAACAAUUUGGAGAAGCGAAGAUCGGAAGAGCACACGU	5.3 ± 1 nM
target 2 MT 5'PFS AGA 3'PFS CGC (mixed) RNA 1: CACCCGUGCAAAAUUGCAGGGGUCUAAAACCUUCUCCAAAUUGUUUCAUCCU RNA 2: GGGAAUGGAUCCACAUCUACGAAUUCAGAAGGAUGAAACAAUUUGGAGAAGCGCAGAUCGGAAGAGCACACGU	6.5 ± 1.2 nM
target 2 MT 5'PFS ACC 3'PFS UUG (mixed) RNA 1: CACCCGUGCAAAAUUGCAGGGGUCUAAAACCUUCUCCAAAUUGUUUCAUCCU RNA 2: GGGAAUGGAUCCACAUCUACGAAUUCACCAGGAUGAAACAAUUUGGAGAAGUUGAGAUCGGAAGAGCACACGU	11.2 ± 2.2 nM
target 2 MT 5'PFS ACC 3'PFS UUC (mixed) RNA 1: CACCCGUGCAAAAUUGCAGGGGUCUAAAACCUUCUCCAAAUUGUUUCAUCCU RNA 2: GGGAAUGGAUCCACAUCUACGAAUUCACCAGGAUGAAACAAUUUGGAGAAGUUCAGAUCGGAAGAGCACACGU	8.2 ± 1.4 nM
target 2 MT 5'PFS CGG 3'PFS UCG (mixed) RNA 1: CACCCGUGCAAAAUUGCAGGGGUCUAAAACCUUCUCCAAAUUGUUUCAUCCU RNA 2: GGGAAUGGAUCCACAUCUACGAAUUCCGGAGGAUGAAACAAUUUGGAGAAGUCGAGAUCGGAAGAGCACACGU	7 ± 0.6 nM
target 2 MT 5'PFS CUC 3'PFS CUU (mixed) RNA 1: CACCCGUGCAAAAUUGCAGGGGUCUAAAACCUUCUCCAAAUUGUUUCAUCCU RNA 2: GGGAAUGGAUCCACAUCUACGAAUUCCUCAGGAUGAAACAAUUUGGAGAAGCUUAGAUCGGAAGAGCACACGU	2.47 ± 0.18 nM
target 2 MT 5'PFS ACC 3'PFS UUA (mixed) RNA 1: CACCCGUGCAAAAUUGCAGGGGUCUAAAACCUUCUCCAAAUUGUUUCAUCCU RNA 2: GGGAAUGGAUCCACAUCUACGAAUUCACCAGGAUGAAACAAUUUGGAGAAGUUAAGAUCGGAAGAGCACACGU	9.6 ± 2.8 nM
target 2 MT 5'PFS GCC 3'PFS CCG (mixed) RNA 1: CACCCGUGCAAAAUUGCAGGGGUCUAAAACCUUCUCCAAAUUGUUUCAUCCU RNA 2: GGGAAUGGAUCCACAUCUACGAAUUCGCCAGGAUGAAACAAUUUGGAGAAGCCGAGAUCGGAAGAGCACACGU	18 ± 2 nM
target 2 MT 5'PFS CUC 3'PFS CUC (mixed) RNA 1: CACCCGUGCAAAAUUGCAGGGGUCUAAAACCUUCUCCAAAUUGUUUCAUCCU RNA 2: GGGAAUGGAUCCACAUCUACGAAUUCCUCAGGAUGAAACAAUUUGGAGAAGCUCAGAUCGGAAGAGCACACGU	3.1 ± 0.6 nM
target 1 insC 3' of 16,insU 3' of 7 (mixed) RNA 1: CACCCGUGCAAAAAUGCAGGGGUCUAAAACUGAGCGGAUAACCUCUCUAUGG RNA 2: GGGAAUGGAUCCACAUCUACGAAUUCGUACCAUAGACGAGGUUAUCUCGCUCACCGAGAUCGGAAGAGCACACGU	75 ± 8 nM
target 1 insC 3' of 11,insU 3' of 7 (mixed) RNA 1: CACCCGUGCAAAAAUGCAGGGGUCUAAAACUGAGCGGAUAACCUCUCUAUGG RNA 2: GGGAAUGGAUCCACAUCUACGAAUUCGUACCAUAGAGAGGUCUAUCUCGCUCACCGAGAUCGGAAGAGCACACGU	39 ± 5 nM
target 1 insG 3' of 22,insG 3' of 21 (mixed) RNA 1: CACCCGUGCAAAAAUGCAGGGGUCUAAAACUGAGCGGAUAACCUCUCUAUGG RNA 2: GGGAAUGGAUCCACAUCUACGAAUUCGUACGCGAUAGAGAGGUUAUCCGCUCACCGAGAUCGGAAGAGCACACGU	68 ± 24 nM
